{"source": "paper PMC7261888", "about": "“Crystal Structure of Geranylgeranyl Pyrophosphate Synthase (CrtE) Involved in Cyanobacterial Terpenoid Biosynthesis” (Frontiers in Plant Science, 2020)", "proteins": {"B1": {"name": "Synechococcus sp. PCC 7002 CrtE (geranylgeranyl pyrophosphate synthase) (enzyme, UniProt B1XJV9 1-302, looked up)", "chain": "MVVADAHTQGFSLAQYLQEQKTIVETALDQSLVITEPVTIYEAMRYSLLAGGKRLRPILCLAACEMLGGTAAMAMNTACALEMIHTMSLIHDDLPAMDNDDLRRGKPTNHKVYGEDIAILAGDALLSYAFEYVARTPDVPAERLLQVIVRLGQAVGAEGLVGGQVVDLESEGKTDVAVETLNFIHTHKTGALLEVCVTAGAILAGAKPEEVQLLSRYAQNIGLAFQIVDDILDITATAEELGKTAGKDLEAQKVTYPSLWGIEKSQAEAQKLVAEAIASLEPYGEKANPLKALAEYIVNRKN", "notes": "CrtE (type II geranylgeranyl pyrophosphate synthase) of Synechococcus sp; PCC 7002, gene crtE, locus SYNPCC7002_A1085; amplified from genomic DNA with primers from the ATG to the stop codon; predicted 302 residues; Expressed from pHUE as an N-terminal His-tagged ubiquitin fusion and freed by deubiquitinase; also called Syn7002 CrtE; Syn7002 GGPPS; source: E. coli BL21(DE3), purified (Ni-NTA, …)"}}, "target": "the molecule itself", "experiment": "SEC; HiLoad 16/60 Superdex 200 pg, 25 mM Tris-HCl pH 7.5, 500 mM NaCl, 4 °C, 1 mL/min; mass estimated from the elution volume", "data": [{"protein": "B1", "values": [{"measurement": "stoichiometry N", "value": 2}]}]}
